Assays:
[1] = biological target: recombinant core spidroin eADF4(C16) (Araneus diadematus (engineered mimic of its fibroin 4 core domain)); assay: turbidity at 340 nm (fibrillization kinetics), global fit with AmyloFit; 10-40 uM eADF4(C16) in 150 mM Na2SO4, 20 C, without and with 0.5% (w/w) pre-formed seeds; secondary nucleation model, nc set to 2 and n2 to 1; monomers to fibrils
[2] = biological target: recombinant core spidroin eADF4(C16) (Araneus diadematus (engineered mimic of its fibroin 4 core domain)); assay: turbidity at 340 nm (fibrillization kinetics), global fit with AmyloFit; 10-40 uM eADF4(C16) in 150 mM NaF, 20 C, without and with 0.5% (w/w) pre-formed seeds; secondary nucleation model, nc set to 2 and n2 to 1; monomers to fibrils

Substance: recombinant core spidroin eADF4(C16)
- k2 (rate constant of secondary nucleation) [1]: 7.08 M⁻¹ s⁻¹
- k+ (rate constant of fibril elongation) [1]: 2.85e+07 M⁻¹ s⁻¹
- k+k2 (elongation x secondary nucleation, combined rate parameter) [1]: 9.04e+07 M^−2 s^−2
- k+kn (elongation x primary nucleation, combined rate parameter) [1]: 1.35e+06 M^−2 s^−2
- kn (rate constant of primary nucleation) [1]: 1.42 M⁻¹ s⁻¹
- k2 (rate constant of secondary nucleation) [2]: 0.598 M⁻¹ s⁻¹
- k+ (rate constant of fibril elongation) [2]: 7.26e+07 M⁻¹ s⁻¹
- k+k2 (elongation x secondary nucleation, combined rate parameter) [2]: 3.34e+07 M^−2 s^−2
- k+kn (elongation x primary nucleation, combined rate parameter) [2]: 420000 M^−2 s^−2
- kn (rate constant of primary nucleation) [2]: 0.00585 M⁻¹ s⁻¹
